Data reported in US7264809B1, “Methods of inhibiting platelet activation and recruitment” (Immunex Corporation, priority 1998, dated 2007).

How the values were obtained:
[1] = TLC assay for ATPase activity; type: biochemical
Description: Following growth in selective medium, CM from CHO cell cultures was analyzed for ATPase and ADPase activities. ADPase assays (Marcus et al., J. Clin. Invest. 88:1690, 1991) were primarily used in determining enzyme kinetics and pharmacokinetics. Test samples were incubated with 50 μM [^14C] ADP (NEN Life Science Products) in assay buffer (15 mM Tris, 134 mM NaCl, 5 mM glucose, pH 7.4, containing 10 μM Ap5A (P^1,P^5-di[adenosine-5′]pentaphosphate, 1 mM ouabain, 10 μM dipyridamole, and 3 mM CaCl2) in a total volume of 50 μl (5 min, 37° C.). Reactions were stopped by placement on ice and addition of 10 μl “stop solution” (160 mM disodium EDTA, pH 7.0, 17 mM ADP, 0.15 M NaCl) to block further metabolism of ADP. Nucleotides, nucleosides, and bases were separated by TLC using isobutanol/1-pentanol/ethylene glycol monoethyl ether/NH4OH/H2O (90:60:180:90:120). Radioactivity was quantified by radio TLC scanning (RTLC multiscanner; Packard, Meriden, Conn.). Results were calculated as averages of duplicate to quadruplicate measurements after subtraction of buffer blanks (consistently <1% of total radioactivity). Data were expressed as percentage of ADP metabolized or as pmol ADP metabolized per minute per μl CM. A unit of activity is the quantity of enzyme which will degrade 1 μmol of ADP in 1 min at 37° C. Identical assays were performed using ATP as a substrate in order to examine the kinetics of the ATPase activity of CD39.
Using the TLC assay system described in Example 12B, the ADPase activity of the membrane-bound HUVEC ecto-ADPase was determined at different pHs in buffers containing 100 mM bis-trispropane (Sigma, St. Louis, Mo.). […] Kinetic constants for CD39 metabolism of ATP and ADP were determined by measuring the initial rates of reaction as analyzed in the TLC system.

platelets = assay: ADP-induced platelet aggregation after solCD39 bolus in pigs; type: in vivo, Yorkshire-Hampshire pigs; details: high dose solCD39
Description: Aspirin was administered orally on a daily basis. Placebo controls consisted of aspirin. Saline controls and solCD39 were administered as a single bolus. Time points were measured following this administration. Blood samples were obtained via an external jugular vein catheter. […] ADP-induced platelet aggregation was measured at specific time intervals following administration. The concentration of CD39 in serum as a function of time was measured using an ELISA assay.

B1: solCD39: recombinant soluble human CD39, untagged: 12 mature huIL2 residues, three amino acid linker, sol CD39 (SEQ ID NO:7) (protein)
chain: MALWIDRMQLLSCIALSLALVTNSAPTSSSTKKTQLTSSTQNKALPENVKYGIVLDAGSSHTSLYIYKWPAEKENDTGVVHQVEECRVKGPGISKFVQKVNEIGIYLTDCMERAREVIPRSQHQETPVYLGATAGMRLLRMESEELADRVLDVVERSLSNYPFDFQGARIITGQEEGAYGWITINYLLGKFSQKTRWFSIVPYETNNQETFGALDLGGASTQVTFVPQNQTIESPDNALQFRLYGKDYNVYTHSFLCYGKDQALWQKLAKDIQVASNEILRDPCFHPGYKKVVNVSDLYKTPCTKRFEMTLPFQQFEIQGIGNYQQCHQSILELFNTSYCPYSQCAFNGIFLPPLQGDFGAFSAFYFVMKFLNLTSEKVSQEKVTEMMKKFCAQPWEEIKTSYAGVKEKYLSEYCFSGTYILSLLLQGYHFTADSWEHIHFIGKIQGSDAGWTLGYMLNLTNMIPAEQPLSTPLSHST
Vmax for ATP ([1]; 2×10^−9 M solCD39): 26 pmol/min | kcat (ATP) ([1]; 2×10^−9 M solCD39): 4.33 s⁻¹ | specific activity for ATP ([1]; purified recombinant solCD39): 4 U/mg | inhibition of platelet aggregation at two weeks (platelets): 30%
